Consider ten molecules from US20240115706A1 (LG CHEM, published 2024).

Test [1] concerns the target T1, human GUCY2C-rCD4 fusion protein (Homo sapiens (human); Rattus norvegicus, biotinylated (site not given)).
T1 construct: GUCY2C conjugated/fused with CD4; also called Hu-GUCY2C-rCD4; human GUCY2C recombinant antigen
Nature of the test: ranking ELISA (DELFIA), 50 nM scFv on anti-FLAG, biotinylated antigen, streptavidin-Eu. On the procedure:
(§1) More specifically, after coating an anti-FLAG antibody in a MaxiSorb plate and binding by adding scFvs obtained previously, the remaining scFvs were removed by a washing process. Here, a biotinylated human-GUCY2C-rCD4 protein was incubated and combined, and then the affinity to the antigen was measured by reading signals by DELFIA enhancement with color development through streptavidin-Europlum.
For orientation: In an ELISA, binding on a coated surface is turned into a signal by an enzyme label.

In test [2] the target is T1, human GUCY2C-rCD4 fusion protein. Description: SPR (Sierra SPR-32), scFv on protein G, antigen 800-12.5 nM, 25 C. As to the method:
Furthermore, the affinity to the GUCY2C antigen of the 18 kinds of scFvs produced in Example 1 was measured by SPR (Surface plasmon resonance) analysis.
SPR assay was performed with association time 2 min and dissociation time 10 min under the condition of 25 degrees of Celsius using MASS2 (Sierra SPR-32; Bruker). The data were analyzed with Software R3.

Test [3] shares this target. Description: ranking ELISA (DELFIA), 5 nM scFv on anti-FLAG, biotinylated antigen, streptavidin-Eu. On the procedure:
as §1

For test [4] the target is unchanged. Nature of the test: ELISA (DELFIA), antigen on streptavidin plate, scFv culture solution, Eu-anti-tag Ab. As to the method: (§2) More specifically, GUCY2C-rCD4 fusion protein, in which the prepared human GUCY2C (SEQ ID NO: 112), monkey GUCY2C (SEQ ID NO: 114), and mouse GUCY2C (SEQ ID NO: 113) were fused, respectively, was bound to a place coated with streptavidin in a Nunc Maxisorp™96 well plate. After removing all the synthetic proteins not combined with washing buffer, the anti-GUCY2C scFV obtained in the culture solution was incubated in each well. After that, the affinity was measured by reading signals DELFIA enhanced using Eu-anti-tag Ab.

The target in test [5] is T2, monkey GUCY2C-rCD4 fusion protein (Macaca fascicularis (crab-eating …, limits assumed)).
T2 construct: Prepared by the same method as the human antigen; also called Cy-GUCY2C-rCD4; monkey GUCY2C recombinant antigen
T2 chain: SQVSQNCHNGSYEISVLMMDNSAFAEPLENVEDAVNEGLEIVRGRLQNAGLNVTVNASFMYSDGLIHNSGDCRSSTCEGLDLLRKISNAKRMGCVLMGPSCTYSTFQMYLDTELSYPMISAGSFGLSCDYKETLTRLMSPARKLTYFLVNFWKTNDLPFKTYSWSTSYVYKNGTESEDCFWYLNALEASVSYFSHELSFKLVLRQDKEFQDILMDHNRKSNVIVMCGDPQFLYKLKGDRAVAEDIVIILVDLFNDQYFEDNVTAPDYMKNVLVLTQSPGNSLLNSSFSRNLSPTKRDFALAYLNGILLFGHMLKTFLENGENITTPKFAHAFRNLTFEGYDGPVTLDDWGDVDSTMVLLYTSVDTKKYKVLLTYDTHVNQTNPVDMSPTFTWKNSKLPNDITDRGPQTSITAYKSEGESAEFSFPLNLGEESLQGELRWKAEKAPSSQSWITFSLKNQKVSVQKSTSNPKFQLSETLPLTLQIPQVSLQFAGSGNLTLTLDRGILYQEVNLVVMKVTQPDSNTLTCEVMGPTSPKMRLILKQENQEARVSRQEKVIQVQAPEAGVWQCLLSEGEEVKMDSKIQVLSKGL
Described as above. As to the method: as §2

B1: scFv A03 (scFv)
scFv: QVQLVQSGAEVKKPGSSVKVSCKASGGTFSSYTISWVRQAPGQELEWMGRIIPILGIANYAQKFQGRVTITADKSTSTAYMELSSLRSEDTAVYYCARDYSSSWNSMDVWGQGTLVTVSSGGGGSGGGGSGGGASQSGLTQPPSASGSPGQSVTISCTGTSSDIGYYHYVSWYQQHPGKAPKLMIYEDSKRPSGISNRFSGSKSGTTASLTVSGLQAEDEAHYYCSSFTSRSTWVFGGGTQLTVL
notes: also called 2427_01_A12
Usually Kd stands for a measure of binding affinity in units of concentration. As to B1, in test [1], the “Affinity Ranking ELISA (50 nM) signal” value was determined as 199000. The affinity in test [2], expressed as Kd, was 219 nM. For the same molecule, the “Affinity Ranking ELISA (5 nM) signal” value in test [3] came to 36000. Also, the “Binding ELISA signal” value in test [4] turned out to be 59200.

B2: scFv B07 (scFv)
scFv: EVQLVQSGAEVKRPGSSVKVSCKASGYTFTSYYMHWVRQAPGQGLEWMGIINPSGGSTSYAQKFQGRVTMTRDTSTSTVYMELSSLRSEDTAVYYCAAGTYSSGWTIDYWGQGTTVTVSSGGGGSGGGGSGGGASDIVMTQSPLSLPVTLGQPASISCRSSQSLVYTDGNTYLNWFQQRPGQSPRRLIYKVSNRDSGVPDRFSGSGSGTDFTLKISRVEAEDVGIYYCMHSKQWPPTFGGGTKVEIK
notes: also called 2436_02_F10
On to B2, for which the “Affinity Ranking ELISA (50 nM) signal” value in test [1] came out at 139000. The same molecule yielded a Kd in test [2] of 293 nM. Besides, in test [3], the “Affinity Ranking ELISA (5 nM) signal” value turned out to be 25900. Also, in test [4], the “Binding ELISA signal” value turned out to be 68600.

B3: scFv A12 (scFv)
scFv: EVQLVQPGAEVKKPGSSVKVSCKASGGTLSSYAISWVRQAPGQGLEWMGRIIPILGITNYAQKFQGRVTITADKSTSTAYMELSSLRSEDTAVYFCARDQRPASMDVWGQGTLVTVSSGGGGSGGGGSGGGASQSELTQPASVSGSPGQSITISCTGTSSDVGGYIYVSWYQQHPGKVPKLMIHDVSHRPSGVSNRFSGSRSGNTASLTISGLQAEDEADYFCSSYTSSNNYVFGTGTKVTVL
notes: also called 2433_01_G08
On to B3, for which the “Affinity Ranking ELISA (50 nM) signal” value in test [1] worked out at 151000. Besides, in test [2], the Kd worked out at 297 nM. The “Affinity Ranking ELISA (5 nM) signal” value in test [3] is 28100. For the same molecule, the “Binding ELISA signal” value in test [4] is 38200.

B4: scFv A02 (scFv)
scFv: EVQLVQPGAEVKKPGSSVKVSCKASGGTLSSYAISWVRQAPGQGLEWMGRIIPILGITNYAQKFQGRVTITADKSTSTAYMELSSLRSEDTAVYFCARDQRPASMDVWGQGTLVTVSSGGGGSGGGGSGGGASQSELTQPASVSGSPGQSITISCTGTSSDVGGYIYVSWYQQHPGKVPKLMIHDVSHRPSGVSNRFSGSRSGNTASLTISGLQAEDEADYFCSSYAGSNNYVFGTGTKVTVL
notes: also called 2427_01_A08
Consider B4, for which the “Affinity Ranking ELISA (50 nM) signal” value in test [1] is 168000. This molecule had a dissociation constant (Kd) in test [2] of 743 nM. The “Affinity Ranking ELISA (5 nM) signal” value in test [3] stood at 33400. Also, in test [4], the “Binding ELISA signal” value was found to be 48300.

B5: scFv A04 (scFv)
scFv: EVQLVQPGAEVKKPGSSVKVSCKASGGTLSSYAISWVRQAPGQGLEWMGRIIPILGITNYAQKFQGRVTITADKSTSTAYMELSSLRSEDTAVYFCARDQRPASMDVWGQGTLVTVSSGGGGSGGGGSGGGASQSELTQPASVSGSPGQSITISCTGTSSDVGGYIYVSWYQQHPGKVPKLMIHDVSHRPSGVSNRFSGSRSGNTASLTISGLQAEDEADYFCSSYTSSNNYYFGTGTKVTVL
notes: also called 2427_01_B02
For B5, in test [1], the “Affinity Ranking ELISA (50 nM) signal” value was 173000. In test [2], this molecule came in with a Kd of 311 nM. For the same molecule, the “Affinity Ranking ELISA (5 nM) signal” value in test [3] is 30400. In addition, in test [4], the “Binding ELISA signal” value was 51000.

B6: scFv C01 (scFv)
scFv: QMQLVQSGAEVKKPGSSVKVSCKASGGTFSSYAISWVRQAPGQGLEWMGGIIPIFGTANYAQKFQGRVTITADESTSTAYMELSSLRSEDTAVYYCVRGYSSIYYYYGMDVWGQGTMVTVSSGGGGSGGGGSGGGASQSGLTQPRSVSGSPGQSVTISCTGTSSDVGGYNYVSWYQQHPGKAPKLMIYDVSKRPSGVSDRFSGSKSGNTASLTISGLQAEDEADYYCGSYTSDGTLVFGGGTKLTVL
notes: also called 2437_02_H05
With B6, the “Affinity Ranking ELISA (50 nM) signal” value in test [1] was determined as 29500. Also, in test [2], the affinity, expressed as Kd, was 1150 nM. Also, the “Affinity Ranking ELISA (5 nM) signal” value in test [3] came out at 3090. The “Binding ELISA signal” value turned out to be 37500 in test [4] and 21600 in test [5].

B7: scFv A05 (scFv)
scFv: QVQLVQSGAEVKKPGSSVKVSCKASGGTFSSYTITWVRQAPGQGLEWMGRIIPVLGIANYAQKFQGRVTITADKSTSTAYMELSSLRSEDTAVYYCARDYSSSWNSMDVWGQGTLVTVSSGGGGSGGGGSGGGASQSGLTQPRSVSGSPGQSVTISCTGTSSDVGGYNYVSWYQQHPGKAPKLMIYDVSKRPSGVPDRFSGSKSGNTASLTVSGLHAEDEADYYCSSYAGSNNFVFGTGTKVTVL
notes: also called 2427_01_B07
In the case of B7, the “Affinity Ranking ELISA (50 nM) signal” value in test [1] was 131000. In test [2], this molecule registered a Kd of 4390 nM. Further, the “Affinity Ranking ELISA (5 nM) signal” value in test [3] is 18300. Also, the “Binding ELISA signal” value in test [4] was found to be 43000.

B8: scFv A06 (scFv)
scFv: QVQLVQSGAEVKKPGSSVKVSCKASGGTFGSYTISWVRQAPGQGLEWMGRIIPILGIANYAQKFQGRVTITADKSTSTAYMELSSLRSEDTAVYYCARDYSSSWNSMDVWGQGTLVTVSSGGGGSGGGGSGGGASQSGLTQPRSVSGSPGQSVTISCTGTSSDVGAYNYVSWYQQHPGKAPKLMIYEVSKRPSGVPDRFSASKSGNTASLTVSGLQAEDEADYYCSSYAGSNNWVFGGGTKLTVL
notes: also called 2427_01_C01
On to B8, for which, in test [1], the “Affinity Ranking ELISA (50 nM) signal” value was 185000. The molecule further registered a Kd in test [2] of 716 nM. Moreover, the “Affinity Ranking ELISA (5 nM) signal” value in test [3] worked out at 35100. The “Binding ELISA signal” value in test [4] is 63100.

B9: scFv C02 (scFv)
scFv: QVQLVQSGAEVKKPGSSVKVSCKASGGTFSSYTISWVRQAPGQGLEWMGRIIPILGIANYAQKFQGRVTITADKSTSTAYMELSSLRSEDTAVYYCARDRSYNWLDPWGRGTLVTVSSGGGGSGGGGSGGGASQSALTQPVSVSGSPGQSITISCTGTISDVGDYNYVSWYQQHPGKAPKLMIYDVNNRPSGVSNRFSGSKSGNTASLTISGLQAEDEADYYCSSYTSSSTLVFGGGTKLTVL
notes: also called 2437_02_H08
On to B9, for which, in test [1], the “Affinity Ranking ELISA (50 nM) signal” value was found to be 86300. In addition, in test [2], the affinity, expressed as Kd, was 1480 nM. Further, in test [3], the “Affinity Ranking ELISA (5 nM) signal” value is 11000. Also, the figures for the “Binding ELISA signal” value in test [4] and in test [5] were 49500 and 32300, respectively.

B10: scFv B10 (scFv)
scFv: EVQLVQSGAEVKKPGSSVKVSCKASGGTFSSYAISWVRQAPGQGLEWMGGIIPIFGTANYAQKFQGRVTITADKSTSTAYMELSSLRSEDTAVYYCARGHYYYMDVWGQGTTVTVSSGGGGSGGGGSGGGASDIVMTQSPATLSVSPGEGATLSCRASQSVSSNLAWYQQKPGRAPRLLIYGASTRATGIPARFSGSGSGTEFTLTISSLQSEDFAVYYCQQYNNWPTFGGGTKLEIK
notes: also called 2436_02_G01
Consider B10, for which the “Affinity Ranking ELISA (50 nM) signal” value in test [1] amounted to 105000. Besides, in test [2], binding was characterised by a dissociation constant (Kd) of 2860 nM. Besides, in test [3], the “Affinity Ranking ELISA (5 nM) signal” value came to 12500. For the same molecule, the “Binding ELISA signal” value in test [4] was found to be 34400.
